According to the supplement of paper PMC9732359:
± gives the uncertainty stated by the source.

Experiment: protein stability index of a GFP-peptide fusion (yeast GPS) (PSI 1-4); higher = more stable; sorted into four equal gates, so the index is relative within each strain
Outline: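 Plasmids isolated from each sorting gate were PCR-amplified and Illumina-sequenced, and barcodes assigned the reads to strains. The gates, four of equal size, were set by GFP/Cherry fluorescence ratio on mid-log cultures in leucine-free medium. These cultures were yeast carrying a pooled library of tiled 17-residue yeast protein peptides fused downstream of GFP on a plasmid that also expresses Cherry. The protein stability index is the sum of every gate's read frequency times its gate number.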

Sequence | protein stability index (doa10∆) | protein stability index (pdr5∆) | protein stability index (san1∆) | protein stability index (ubr1∆)
QMAVHIATDGGRICRPL [RET1] | 2.66 ± 0.094 | 3.04 ± 0.085 | 2.78 ± 0.1 | 2.8 ± 0.054
LNHVVSLIENKKAKLVL [RPL8B] | 2.46 ± 0.088 | 3.54 ± 0.17 | 2.98 ± 0.1 | 2.83 ± 0.1
EIFDVTSNGLKKNPNWL [FAS1] | 3.54 ± 0.16 | 3.46 ± 0.11 | 2.64 ± 0.18 | 3.37 ± 0.06
DVQLERVADEDANLNDL [IRR1] | 2.89 ± 0.17 | – | – | –
WLWPLCRGELKADIGKP [CDC53] | 2.11 ± 0.078 | 2.06 ± 0.062 | 1.98 ± 0.089 | 2.43 ± 0.09
SVKSARTSTRGRGRGRG [SNF2] | 3.38 ± 0.065 | 3.35 ± 0.064 | 3.19 ± 0.046 | 3.32 ± 0.041
GGIVTVRSEMGEPIHKI [FAS1] | 3.29 ± 0.18 | 2.91 ± 0.21 | – | –
VFVGTIFAGAFVFQTVF [QCR9] | 1.82 ± 0.061 | 1.4 ± 0.049 | 1.23 ± 0.11 | 1.5 ± 0.043
EGFAADDEPTTPAELVG [FAS1] | 3.3 ± 0.09 | 3.19 ± 0.092 | 3.2 ± 0.071 | 3.19 ± 0.076
FGVPNSSKNETSKPVFS [YLR335W/NUP2] | 2.32 ± 0.035 | 2.97 ± 0.13 | 2.55 ± 0.13 | 3.15 ± 0.068
NIIESIANFSRAGKYEL [YJR042W/NUP85] | 2.86 ± 0.087 | 2.96 ± 0.086 | 2.87 ± 0.051 | 2.44 ± 0.042
ISYLQEVQCTSTPYLEI [PCI8] | 2.68 ± 0.16 | – | 1.7 ± 0.2 | 1.81 ± 0.22
IVPGTYIQERNPTQRPQ [RPS10A] | 3.01 ± 0.054 | 3.08 ± 0.043 | 3.05 ± 0.037 | 3.12 ± 0.034
VLKVDKRFMNTSQNPQR [BRR2] | 3 ± 0.056 | 3.2 ± 0.06 | 3.21 ± 0.069 | 2.99 ± 0.04
PDIADIPRTFRTPVPST [SNF5] | 2.12 ± 0.093 | 1.96 ± 0.059 | 2.04 ± 0.064 | 2.01 ± 0.072
YMRLWEINETEFIRCGC [RMP1] | 3.31 ± 0.13 | 3.46 ± 0.14 | 3.55 ± 0.13 | 3.33 ± 0.049
QVILPMSPNHGTFGGDG [FAS2] | 3.12 ± 0.064 | 3.1 ± 0.057 | 3.18 ± 0.061 | 3.07 ± 0.048
SLLPYYHLTKAVKLGDL [RPN3] | 2.21 ± 0.052 | 1.74 ± 0.052 | 1.72 ± 0.073 | 1.78 ± 0.066
SVKESTGMSSMSPFLRK [SRB4] | 3.42 ± 0.14 | 2.6 ± 0.23 | 2.1 ± 0.25 | 3.15 ± 0.079
EITGTSCLTFFQALDSE [ITC1] | 2.46 ± 0.086 | 2.78 ± 0.099 | 2.42 ± 0.1 | 1.82 ± 0.057
VSTKTNEYRLAFYQVTP [RPL22A] | 1.86 ± 0.038 | 2.19 ± 0.04 | 2.6 ± 0.056 | 2.48 ± 0.048
VQLSPSNPQHIIQPFLD [RGR1] | 2.73 ± 0.051 | 2.85 ± 0.062 | 2.51 ± 0.063 | 2.82 ± 0.032
PTDSSKILQKRSISKEL [SIR3] | 2.76 ± 0.066 | 2.98 ± 0.086 | 3.02 ± 0.065 | 2.85 ± 0.081
PGDVLDKDAFIPKLKPA [SNU114] | 1.89 ± 0.094 | 1.5 ± 0.098 | 1.2 ± 0.18 | 1.71 ± 0.12
SSTGVPESIDTILSSKL [SRB2] | 2.62 ± 0.19 | 2.92 ± 0.13 | 2.93 ± 0.075 | 3.04 ± 0.075
SNDLCSQIFDQLKDMQT [SRB8] | 2.72 ± 0.047 | 2.67 ± 0.042 | 2.47 ± 0.049 | 2.71 ± 0.034
DDRYGYQLYTSNPSGNY [PRE9] | 2.88 ± 0.073 | 2.97 ± 0.081 | 3.06 ± 0.065 | 3.1 ± 0.05
DQDSAVVSSNIKKIVAD [QCR2] | – | – | – | 3.14 ± 0.14
